Measurements published in patent US11053313B2, “Anti-CLDN-5 antibody, and drug containing said antibody” (OSAKA UNIVERSITY, priority 2017, dated 2021).
Where a chain is given by its changes, count along the chain named.

How the values were obtained:
mCLDN-5 [1] = target: T1, mCLDN-5 (Mus musculus, UniProt O54942); assay: Evaluation of CLDN specificity by FACS, mCLDN-5-expressing cells; assay type: binding; details: hybridoma culture supernatant as primary antibody, FIG. 1B
T1 construct: expressed in transfected cells; host or cells: retrovirus-infected cells
T1 sequence (O54942 1-218): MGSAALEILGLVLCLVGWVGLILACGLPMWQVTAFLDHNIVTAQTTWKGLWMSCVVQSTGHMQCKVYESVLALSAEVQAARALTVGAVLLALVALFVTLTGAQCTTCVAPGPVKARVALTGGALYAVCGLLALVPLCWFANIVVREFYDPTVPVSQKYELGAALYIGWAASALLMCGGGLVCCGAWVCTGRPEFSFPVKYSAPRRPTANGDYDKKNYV

mCLDN-5 [2] = target: T1, mCLDN-5; assay: Cross-species activity FACS, mCLDN-5-expressing cells; assay type: binding; details: antibody concentration 5 μg/mL, FIG. 2
hCLDN-5 [3] = assay: Epitope analysis by hCLDN-5/hCLDN-1 chimeric CLDN (FACS), loop assignment; assay type: binding, human; details: antibody concentration 5 μg/mL, hCLDN-5/hCLDN-1 chimeras
1-1-5 = target: T2, 1-1-5 (Homo sapiens, UniProt O00501, A34S/A72N/D37G/E76T/F35Y/G26A/H38D/H61Q/K48E/L36A/M29Q/M62I/Q31R/T33Y/T45A/T46M/T75S/V32I/V56S/V70L/W47Y/Y67F); assay: Epitope analysis FACS, chimeric protein 1-1-5; assay type: binding; details: antibody concentration 5 μg/mL; first extracellular loop substituted with hCLDN-1
T2 construct: expressed in transfected cells; host or cells: retrovirus-infected cells (pCX4pur)
T2 sequence (O00501 1-218 G26A/M29Q/Q31R/V32I/T33Y/A34S/F35Y/L36A/D37G/H38D/T45A/T46M/W47Y/K48E/V56S/H61Q/M62I/Y67F/V70L/A72N/T75S/E76T): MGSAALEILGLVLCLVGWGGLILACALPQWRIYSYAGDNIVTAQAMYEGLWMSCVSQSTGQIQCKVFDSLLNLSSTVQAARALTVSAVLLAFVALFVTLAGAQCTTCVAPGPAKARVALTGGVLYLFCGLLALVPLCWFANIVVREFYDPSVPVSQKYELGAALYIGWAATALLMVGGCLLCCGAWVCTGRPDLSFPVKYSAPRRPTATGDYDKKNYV

5-5-1 = target: T3, 5-5-1 (Homo sapiens, UniProt O00501, A162Q/K157R/L160F/Q156A/S151M/S155N/V152T); assay: Epitope analysis FACS, chimeric protein 5-5-1; assay type: binding; details: antibody concentration 5 μg/mL; second extracellular loop substituted with hCLDN-1
T3 construct: expressed in transfected cells; host or cells: retrovirus-infected cells (pCX4pur)
T3 sequence (O00501 1-218 S151M/V152T/S155N/Q156A/K157R/L160F/A162Q): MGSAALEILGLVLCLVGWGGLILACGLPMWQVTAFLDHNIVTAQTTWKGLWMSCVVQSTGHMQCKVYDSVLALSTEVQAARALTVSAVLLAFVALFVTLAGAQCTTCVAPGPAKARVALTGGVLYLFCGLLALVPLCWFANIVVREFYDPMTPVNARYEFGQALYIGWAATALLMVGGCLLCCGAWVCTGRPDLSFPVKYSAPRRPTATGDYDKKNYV

hCLDN-5 [4] = assay: Epitope analysis by hCLDN-5/mCLDN-5 chimeric CLDN (D68E, T75A, S151T, TM; FACS); assay type: binding, human; details: antibody concentration 5 μg/mL, mutants D68E
hCLDN-5 [5] = target: T4, hCLDN-5 (Homo sapiens, UniProt O00501); assay: Western blotting operability, HT-1080/hCLDN-5 lysate; assay type: binding; details: SDS-PAGE under reducing condition, antibody concentration 10 μg/mL, FIG. 5
T4 construct: expressed in transfected cells; host or cells: HT-1080 human fibrosarcoma cells infected with a pCX4pur-derived retrovirus (HT-1080/hCLDN-5)
T4 sequence (O00501 1-218): T3 sequence (O00501 1-218 S151M/V152T/S155N/Q156A/K157R/L160F/A162Q) with M151S, T152V, N155S, A156Q, R157K, F160L, Q162A
Protocol: FIG. 5 illustrates western blotting images showing the CLDN-5 primary structure recognizability of the anti-CLDN-5 antibodies obtained in Example 3-6). The primary antibodies used are shown at the top of the images, and the used cells are shown under the primary antibodies. The names of proteins represented by bands are shown on the left side of the images.
Cell lysates were prepared from HT-1080/mock and HT-1080/hCLDN-5 obtained in Example 1-2), and the lysates were separated by SDS-PAGE under a reducing condition. By using the antibodies (antibody concentration: 10 μg/mL) obtained in Example 1 as primary antibodies, western blotting was performed according to the conventional method. As primary antibodies, commercial monoclonal antibodies (4C3C2, Invitrogen, 35-2500) recognizing the C-terminal of CLDN-5 were used as positive control, and β actin antibodies (Sigma Aldrich, A1978) were used as loading control. The results are illustrated in FIG. 5.

MDCKII/hCLDN-5 = assay: TEER of CLDN-5 compulsory expression system, MDCKII/hCLDN-5; assay type: cell-based, human; details: MDCKII/hCLDN-5, FIG. 7B
[6] = tested on: blood-brain barrier simulation system; assay: Material permeability of blood-brain barrier simulation system (monkey BBB kit); assay type: cell-based; details: 12 hours after addition, FIG. 13
ZO-1 = ZO-1 localization by immunostaining in blood-brain barrier simulation system; assay type: cell-based; details: monkey BBB kit, 12 hours after addition, FIG. 14
CLDN-5 = CLDN-5 localization by immunostaining in blood-brain barrier simulation system; assay type: cell-based; details: monkey BBB kit, 12 hours after addition, FIG. 14

B1: R9: rat anti-CLDN-5 monoclonal antibody, IgG2b/K; VH SEQ ID NO: 17, VL SEQ ID NO: 18; example of antibody I (antibody, V domains shown)
VH: QVTLKESGPGILQPSHTLSLTCSFSGFSLNTYGVGVNWIRQPSGKGLEWLASIWWHGKTYINPSLKNRLTVSKDPSNNQAFLEVTNVDPADTATYYCAHARAQLLDYWGQGVMVTVSS
VL: DIVMTQTPSSQAVSAGEKVTMSCKSSQSLLYSGDQKNYLAWYQQKPGQSPKLLIYLTSTRESGVPDRFIGSGSGTDFTLTISSVQAEDLADYYCQQHYSYPLTFGSGTKLEI
modifications: R9 VH; R9 VL
For B1, the “binding capacity to mCLDN-5” value (mCLDN-5 [1]) was “extremely low”, the “binding capacity to mCLDN-5” value (mCLDN-5 [2]) was “extremely low” and the “extracellular loop of CLDN-5 recognized” value (hCLDN-5 [3]) was “second extracellular loop”. The “recognition of 1-1-5” value (1-1-5) was “capable of recognizing”, the “recognition of 5-5-1” value (5-5-1) was “incapable of recognizing” and the “portion of hCLDN-5 recognized” value (hCLDN-5 [4]) was “domain around the 151st amino acid from the N-terminal present in the second extracellular loop”. The “recognition of linear peptide (western blotting operability)” value (hCLDN-5 [5]) was “strongly recognized”, the “reduction in TEER” value (MDCKII/hCLDN-5) was “greatly reducing TEER” and the “4 kDa FITC-dextran permeability of the blood-brain barrier simulation system” value [6] was “exhibited an activity of improving”. The “localization properties of ZO-1” value (ZO-1) was “did not change” and the “localization properties of CLDN-5 in the intercellular space” value (CLDN-5) was “reduced”.
